Data as given in US20090093061A1.

Experiments:
Experiment in all cases: GroEL-490 bead column capture of denatured serum, ATP elution, LC-MS-MS
[1] = target: ATPase, H+ transporting, lysosomal V0 subunit a isoform 2 (Homo sapiens) (UniProt Q9Y487)
[2] = target: brefeldin A-inhibited guanine nucleotide-exchange protein 1 (Homo sapiens) (UniProt Q9Y6D6)
[3] = target: alpha 1 type IX collagen isoform 1 precursor (Homo sapiens) (UniProt P20849)
[4] = target: UDP glycosyltransferase 2 family, polypeptide B7 (Homo sapiens) (UniProt P16662)
[5] = target: odd Oz/Ten-m homolog 3 (Homo sapiens) (UniProt Q9P273)
[6] = target: apolipoprotein A-I precursor (Homo sapiens) (UniProt P02647)
[7] = target: glutaminase C (Homo sapiens) (UniProt O94925)
[8] = target: PDZ domain-containing guanine nucleotide exchange factor I (Homo sapiens) (UniProt Q8TEU7)
[9] = target: zinc finger protein 469 (Homo sapiens) (UniProt Q96JG9)
[10] = target: kinesin family member 23 isoform 1 (Homo sapiens) (UniProt Q02241)
[11] = target: similar to Ig alpha-2 chain C region (Homo sapiens) (UniProt P25787)
[12] = target: T1, similar to Nonhistone chromosomal protein HMG-14 (High-mobility group nucleosome binding domain 1) (Homo sapiens) (UniProt P05114)
T1 sequence (looked up): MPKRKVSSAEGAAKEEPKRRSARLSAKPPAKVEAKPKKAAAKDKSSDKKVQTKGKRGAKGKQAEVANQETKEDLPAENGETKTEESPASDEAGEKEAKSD

[13] = target: very large G-protein coupled receptor 1 (Homo sapiens) (UniProt Q8WXG9)
[14] = target: myocardin-related transcription factor B (Homo sapiens) (UniProt Q9ULH7)
[15] = target: 3-phosphoinositide dependent protein kinase-1 (Homo sapiens) (UniProt O15530)
[16] = target: POU domain, class 2, transcription factor 1 (Homo sapiens) (UniProt P14859)
[17] = target: similar to KIAA1074 protein (Homo sapiens) (UniProt Q9UPS8)
[18] = target: titin isoform N2-A (Homo sapiens) (UniProt Q8WZ42)
[19] = target: similar to hypothetical protein (Homo sapiens)
[20] = target: hematopoletic protein 1 (Homo sapiens) (UniProt P55160)
[21] = target: hypothetical protein FLJ21439 (Homo sapiens)
[22] = target: apolipoprotein B precursor (Homo sapiens) (UniProt P04114)
[23] = target: v-raf murine sarcoma 3611 viral oncogene homolog 1 (Homo sapiens) (UniProt P10398)
[24] = target: similar to CXYorf1-related protein (Homo sapiens)
[25] = target: zinc finger protein 28 (Homo sapiens) (UniProt Q8NHY6)
[26] = target: KIAA0804 protein (Homo sapiens) (UniProt Q8N3P4)
[27] = target: phosphoinositide-specific phospholipase C beta 1 isoform a (UniProt Q9NQ66)
[28] = target: hypothetical protein FLJ35834 (Homo sapiens)
[29] = target: hypothetical protein FLJ22344 (Homo sapiens)
[30] = target: keratin 1 (Homo sapiens) (UniProt P04264)
[31] = target: baculoviral IAP repeat-containing 6 (Homo sapiens) (UniProt Q9NR09)
[32] = target: KIAA1330 protein (Homo sapiens) (UniProt Q96L96)
[33] = target: phosphoinositol 3-phosphate-binding protein-2 (Homo sapiens) (UniProt Q9HAU0)

Sequence of GroEL having Aspartate 490 substituted with Cysteine, biotinylated and conjugated onto NeutrAvidin beads (A1AJ51 whole entry D490C): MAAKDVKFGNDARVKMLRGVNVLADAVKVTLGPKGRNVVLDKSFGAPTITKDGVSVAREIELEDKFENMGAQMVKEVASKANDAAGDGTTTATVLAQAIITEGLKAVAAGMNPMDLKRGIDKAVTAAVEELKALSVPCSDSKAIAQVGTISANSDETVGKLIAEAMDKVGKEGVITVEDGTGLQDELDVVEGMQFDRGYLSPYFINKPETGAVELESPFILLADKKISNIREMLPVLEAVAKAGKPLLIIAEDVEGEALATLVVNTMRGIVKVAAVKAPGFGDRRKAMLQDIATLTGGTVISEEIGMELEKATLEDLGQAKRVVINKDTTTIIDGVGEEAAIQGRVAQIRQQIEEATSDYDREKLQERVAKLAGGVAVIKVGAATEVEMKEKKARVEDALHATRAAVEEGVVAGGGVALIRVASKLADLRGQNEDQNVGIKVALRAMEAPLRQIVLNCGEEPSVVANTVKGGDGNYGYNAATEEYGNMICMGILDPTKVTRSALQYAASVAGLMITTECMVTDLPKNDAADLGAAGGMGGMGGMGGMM
Sequence of ATPase, H+ transporting, lysosomal V0 subunit a isoform 2 (Homo sapiens) (Q9Y487 whole entry, canonical isoform): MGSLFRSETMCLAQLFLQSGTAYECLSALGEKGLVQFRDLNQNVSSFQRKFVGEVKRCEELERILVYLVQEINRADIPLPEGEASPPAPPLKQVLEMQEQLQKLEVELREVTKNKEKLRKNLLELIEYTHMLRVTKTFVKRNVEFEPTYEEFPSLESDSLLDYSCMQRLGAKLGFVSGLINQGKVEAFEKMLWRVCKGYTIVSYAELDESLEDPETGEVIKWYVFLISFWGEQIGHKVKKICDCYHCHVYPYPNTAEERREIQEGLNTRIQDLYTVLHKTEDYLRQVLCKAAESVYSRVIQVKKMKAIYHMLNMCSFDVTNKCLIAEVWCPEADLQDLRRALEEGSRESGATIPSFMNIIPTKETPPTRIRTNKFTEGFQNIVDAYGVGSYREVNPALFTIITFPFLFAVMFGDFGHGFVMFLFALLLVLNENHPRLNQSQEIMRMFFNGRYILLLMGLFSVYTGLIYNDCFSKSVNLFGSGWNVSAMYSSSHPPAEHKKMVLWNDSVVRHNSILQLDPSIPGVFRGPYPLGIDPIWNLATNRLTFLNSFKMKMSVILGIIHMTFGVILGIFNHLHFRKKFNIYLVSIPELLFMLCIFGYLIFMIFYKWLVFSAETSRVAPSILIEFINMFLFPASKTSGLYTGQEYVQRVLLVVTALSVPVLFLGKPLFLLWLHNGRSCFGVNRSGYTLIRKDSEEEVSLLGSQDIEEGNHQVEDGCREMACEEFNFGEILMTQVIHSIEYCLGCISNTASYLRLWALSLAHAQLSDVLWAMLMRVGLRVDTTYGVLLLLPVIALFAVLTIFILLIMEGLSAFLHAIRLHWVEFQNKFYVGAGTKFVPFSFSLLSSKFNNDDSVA
Sequence of brefeldin A-inhibited guanine nucleotide-exchange protein 1 (Homo sapiens) (Q9Y6D6 whole entry, canonical isoform): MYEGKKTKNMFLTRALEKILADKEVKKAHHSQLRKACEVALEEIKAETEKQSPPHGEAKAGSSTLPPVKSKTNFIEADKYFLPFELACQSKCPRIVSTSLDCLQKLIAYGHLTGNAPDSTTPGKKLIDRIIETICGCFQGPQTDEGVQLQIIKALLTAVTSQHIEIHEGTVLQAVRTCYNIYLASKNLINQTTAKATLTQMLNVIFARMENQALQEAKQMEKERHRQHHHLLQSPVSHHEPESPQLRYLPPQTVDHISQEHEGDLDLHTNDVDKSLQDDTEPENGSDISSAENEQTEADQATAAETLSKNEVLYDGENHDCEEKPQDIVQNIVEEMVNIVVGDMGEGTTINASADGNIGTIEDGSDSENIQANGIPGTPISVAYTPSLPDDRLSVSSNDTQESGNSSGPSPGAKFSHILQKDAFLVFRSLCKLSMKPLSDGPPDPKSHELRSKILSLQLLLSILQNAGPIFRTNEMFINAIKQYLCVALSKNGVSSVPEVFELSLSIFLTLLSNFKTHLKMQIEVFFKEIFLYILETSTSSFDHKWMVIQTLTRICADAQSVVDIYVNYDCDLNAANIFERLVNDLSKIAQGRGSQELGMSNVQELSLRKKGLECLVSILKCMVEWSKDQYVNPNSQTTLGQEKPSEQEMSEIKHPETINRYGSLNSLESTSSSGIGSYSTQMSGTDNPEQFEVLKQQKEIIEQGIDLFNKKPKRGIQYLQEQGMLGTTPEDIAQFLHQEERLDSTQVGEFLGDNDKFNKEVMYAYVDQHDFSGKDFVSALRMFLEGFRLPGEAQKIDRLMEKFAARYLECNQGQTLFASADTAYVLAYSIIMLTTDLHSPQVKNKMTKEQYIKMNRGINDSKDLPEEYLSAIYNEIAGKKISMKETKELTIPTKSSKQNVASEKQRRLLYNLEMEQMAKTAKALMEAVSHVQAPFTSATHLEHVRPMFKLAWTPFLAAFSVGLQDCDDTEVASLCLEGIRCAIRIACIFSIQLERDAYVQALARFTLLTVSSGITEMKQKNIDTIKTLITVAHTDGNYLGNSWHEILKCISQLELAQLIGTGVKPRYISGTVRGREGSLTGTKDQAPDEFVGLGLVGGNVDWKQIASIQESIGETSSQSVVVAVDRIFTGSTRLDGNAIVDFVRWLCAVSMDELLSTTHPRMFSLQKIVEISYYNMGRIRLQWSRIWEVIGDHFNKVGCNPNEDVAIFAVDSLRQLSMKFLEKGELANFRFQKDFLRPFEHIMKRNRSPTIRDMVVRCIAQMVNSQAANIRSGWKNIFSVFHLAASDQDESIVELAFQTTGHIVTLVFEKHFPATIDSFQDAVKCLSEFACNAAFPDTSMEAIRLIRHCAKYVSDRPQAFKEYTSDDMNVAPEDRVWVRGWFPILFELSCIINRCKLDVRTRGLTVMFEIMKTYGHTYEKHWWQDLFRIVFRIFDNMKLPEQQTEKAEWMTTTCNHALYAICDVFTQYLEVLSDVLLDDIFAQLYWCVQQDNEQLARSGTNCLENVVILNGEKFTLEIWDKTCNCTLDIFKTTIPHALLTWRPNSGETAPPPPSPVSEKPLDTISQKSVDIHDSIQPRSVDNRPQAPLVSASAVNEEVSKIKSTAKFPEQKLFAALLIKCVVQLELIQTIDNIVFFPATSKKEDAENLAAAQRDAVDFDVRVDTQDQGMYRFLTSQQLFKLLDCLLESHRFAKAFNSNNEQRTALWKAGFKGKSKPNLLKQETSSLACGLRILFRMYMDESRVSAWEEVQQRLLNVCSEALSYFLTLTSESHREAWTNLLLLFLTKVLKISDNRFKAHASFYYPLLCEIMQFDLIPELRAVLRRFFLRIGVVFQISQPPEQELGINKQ
Sequence of phosphoinositide-specific phospholipase C beta 1 isoform a (Q9NQ66 whole entry, canonical isoform): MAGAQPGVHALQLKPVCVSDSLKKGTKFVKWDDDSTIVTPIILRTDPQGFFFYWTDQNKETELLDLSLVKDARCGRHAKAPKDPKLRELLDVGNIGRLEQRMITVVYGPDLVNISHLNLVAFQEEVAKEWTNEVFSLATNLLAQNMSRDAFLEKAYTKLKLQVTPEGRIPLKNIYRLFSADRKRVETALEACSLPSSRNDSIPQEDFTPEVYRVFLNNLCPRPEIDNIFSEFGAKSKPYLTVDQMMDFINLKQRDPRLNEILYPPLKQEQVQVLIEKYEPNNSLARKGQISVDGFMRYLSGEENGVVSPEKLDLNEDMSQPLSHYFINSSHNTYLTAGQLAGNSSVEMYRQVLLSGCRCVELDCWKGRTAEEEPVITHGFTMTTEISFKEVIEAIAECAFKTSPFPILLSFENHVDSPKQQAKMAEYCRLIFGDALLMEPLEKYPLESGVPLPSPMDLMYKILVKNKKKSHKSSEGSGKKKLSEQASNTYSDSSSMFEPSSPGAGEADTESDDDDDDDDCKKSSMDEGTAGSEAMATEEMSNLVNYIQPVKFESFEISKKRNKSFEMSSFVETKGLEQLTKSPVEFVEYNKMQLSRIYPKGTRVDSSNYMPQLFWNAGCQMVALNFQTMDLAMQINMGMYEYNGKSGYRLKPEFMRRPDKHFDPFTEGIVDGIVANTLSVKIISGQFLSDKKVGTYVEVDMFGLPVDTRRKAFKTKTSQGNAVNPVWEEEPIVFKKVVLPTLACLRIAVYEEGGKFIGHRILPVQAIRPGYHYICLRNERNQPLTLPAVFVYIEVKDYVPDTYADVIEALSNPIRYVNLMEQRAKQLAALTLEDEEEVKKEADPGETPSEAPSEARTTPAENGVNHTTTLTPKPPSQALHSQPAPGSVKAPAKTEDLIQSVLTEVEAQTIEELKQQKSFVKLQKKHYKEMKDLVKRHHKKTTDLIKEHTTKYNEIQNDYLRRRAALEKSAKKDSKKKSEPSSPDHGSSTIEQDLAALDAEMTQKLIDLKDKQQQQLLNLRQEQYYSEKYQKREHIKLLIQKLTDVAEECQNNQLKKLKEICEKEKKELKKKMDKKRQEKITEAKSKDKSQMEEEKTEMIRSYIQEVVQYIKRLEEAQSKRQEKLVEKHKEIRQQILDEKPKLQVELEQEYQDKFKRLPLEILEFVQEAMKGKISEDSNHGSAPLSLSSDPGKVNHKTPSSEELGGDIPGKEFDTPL
Sequence of UDP glycosyltransferase 2 family, polypeptide B7 (Homo sapiens) (P16662 24-529): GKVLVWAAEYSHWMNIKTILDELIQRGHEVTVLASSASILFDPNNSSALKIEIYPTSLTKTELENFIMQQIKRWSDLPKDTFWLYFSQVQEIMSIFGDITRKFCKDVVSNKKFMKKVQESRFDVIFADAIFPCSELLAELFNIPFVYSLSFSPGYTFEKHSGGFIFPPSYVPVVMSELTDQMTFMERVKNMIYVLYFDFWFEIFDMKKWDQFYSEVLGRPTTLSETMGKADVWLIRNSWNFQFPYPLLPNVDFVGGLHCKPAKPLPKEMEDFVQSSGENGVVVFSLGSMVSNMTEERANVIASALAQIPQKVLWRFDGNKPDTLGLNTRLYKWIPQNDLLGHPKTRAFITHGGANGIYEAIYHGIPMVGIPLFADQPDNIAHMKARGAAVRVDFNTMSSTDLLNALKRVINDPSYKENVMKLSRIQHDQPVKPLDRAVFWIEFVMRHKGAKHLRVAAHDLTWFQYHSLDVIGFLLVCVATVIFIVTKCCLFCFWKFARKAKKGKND

Spectrum Count [1]: 12 count | Spectrum Count [2]: 11 count | Spectrum Count [3]: 10 count | Spectrum Count [4]: 26 count | Spectrum Count [5]: 14 count | Spectrum Count [6]: 13 count | Spectrum Count [7]: 27 count | Spectrum Count [8]: 9 count | Spectrum Count [9]: 13 count | Spectrum Count [10]: 53 count | Spectrum Count [11]: 19 count | Spectrum Count [12]: 13 count | Spectrum Count [13]: 14 count | Spectrum Count [14]: 16 count | Spectrum Count [15]: 13 count | Spectrum Count [16]: 11 count | Spectrum Count [17]: 28 count | Spectrum Count [18]: 16 count | Spectrum Count [19]: 13 count | Spectrum Count [20]: 35 count | Spectrum Count [21]: 11 count | Spectrum Count [22]: 19 count | Spectrum Count [23]: 13 count | Spectrum Count [24]: 110 count | Spectrum Count [25]: 18 count | Spectrum Count [26]: 13 count | Spectrum Count [27]: 34 count | Spectrum Count [28]: 9 count | Spectrum Count [29]: 10 count | Spectrum Count [30]: 16 count | Spectrum Count [31]: 113 count | Spectrum Count [32]: 13 count | Spectrum Count [33]: 9 count
Substance: GroEL having Aspartate 490 substituted with Cysteine, biotinylated and conjugated onto NeutrAvidin beads (from UniProt A1AJ51 1-548)
